Assay results as given in patent KR20230078152A (dated 2023).

Target: human PSMA (prostate-specific membrane antigen) expressed on LNCaP cells (human, UniProt Q04609 1-750)
Assay: cell-based or functional assay

Chain of human PSMA (prostate-specific membrane antigen) expressed on LNCaP cells (Q04609 whole entry): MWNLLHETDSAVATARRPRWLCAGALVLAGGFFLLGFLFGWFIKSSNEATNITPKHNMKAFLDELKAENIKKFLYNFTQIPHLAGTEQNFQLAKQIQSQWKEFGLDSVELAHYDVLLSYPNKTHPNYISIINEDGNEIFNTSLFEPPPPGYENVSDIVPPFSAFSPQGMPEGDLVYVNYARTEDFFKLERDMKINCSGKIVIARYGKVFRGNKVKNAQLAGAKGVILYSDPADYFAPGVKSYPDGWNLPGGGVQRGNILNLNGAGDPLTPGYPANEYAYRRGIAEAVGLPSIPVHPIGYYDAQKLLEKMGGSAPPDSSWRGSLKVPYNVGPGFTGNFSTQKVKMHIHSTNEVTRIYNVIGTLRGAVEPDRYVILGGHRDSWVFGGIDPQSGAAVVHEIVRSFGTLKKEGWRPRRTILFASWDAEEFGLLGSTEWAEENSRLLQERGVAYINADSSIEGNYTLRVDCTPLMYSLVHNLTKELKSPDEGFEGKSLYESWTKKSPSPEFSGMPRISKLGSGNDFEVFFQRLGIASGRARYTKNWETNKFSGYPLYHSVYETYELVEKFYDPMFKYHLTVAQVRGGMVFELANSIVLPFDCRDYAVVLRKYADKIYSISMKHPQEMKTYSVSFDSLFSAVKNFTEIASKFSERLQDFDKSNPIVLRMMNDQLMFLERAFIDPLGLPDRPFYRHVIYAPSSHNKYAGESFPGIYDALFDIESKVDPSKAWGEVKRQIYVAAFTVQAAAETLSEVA

B1: PSMA 타겟 항체-약물 접합체 (PSMA target antibody-MMAE conjugate) (other, DAR 8.36)
VH: EVQLQQSGPELVKPGASVKISCKASGYAFSSSWMNWVKQRPGQGLEWIGRIYPADGDTNYNGKFKGKATLTADKSSSTAYMQLSSLTSVDSAVYFCARCGWDGGVYYAMDYWGQGTSVTVSS
VL: DIVMTQSPASLAVSLGQRATISCRASKSVTTSGYSYMHWYQQKPGQPPKLLIYLASNLESGVPARFSGSGSGTDFTLNIHPVEEEDAATYYCQHSRELPRTFGGGTKLEIK
modifications: MMAE conjugated through a VC-PAB linker (antibody MMAE Conjugation Kit), DAR 8.36; sites not stated
With B1 the “cytotoxicity on LNCaP cells (Cell counting kit-8, 72 h), IC50” value was 0.5 nM.
